Assay results taken from paper doi:10.1101/2021.02.10.430713.

Biological target: Listeria monocytogenes c-di-AMP effector protein Lmo0553 (Listeria monocytogenes)
Assay: crystal structure

“Listeria monocytogenes c-di-AMP effector protein Lmo0553 (natural protein)” showed a stoichiometry N of 2.
